Measurements: paper PMC12572374, “Regulation of ADP-ribosyltransferase activity by ART domain dimerization in PARP15” (Nature Communications, 2025)

Legend:
[1] = molecular target: T1, PARP15 (Homo sapiens, UniProt Q460N3, R576E); assay: X-ray crystal structure; also nanoDSF thermal shift; type: binding
T1 construct: ART domain, Asn481-Ala678
T1 sequence (Q460N3 481-678 R576E): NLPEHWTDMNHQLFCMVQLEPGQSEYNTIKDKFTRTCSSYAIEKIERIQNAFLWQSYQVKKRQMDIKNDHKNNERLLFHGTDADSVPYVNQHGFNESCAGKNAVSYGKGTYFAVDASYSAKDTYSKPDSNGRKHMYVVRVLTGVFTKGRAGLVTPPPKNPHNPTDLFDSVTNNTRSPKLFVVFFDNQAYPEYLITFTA

[2] = molecular target: T2, PARP15 (Homo sapiens, UniProt Q460N3, R576D); assay: nanoDSF thermal shift at […] ligand; type: binding
T2 construct: ART domain, Asn481-Ala678
T2 sequence (Q460N3 481-678 R576D): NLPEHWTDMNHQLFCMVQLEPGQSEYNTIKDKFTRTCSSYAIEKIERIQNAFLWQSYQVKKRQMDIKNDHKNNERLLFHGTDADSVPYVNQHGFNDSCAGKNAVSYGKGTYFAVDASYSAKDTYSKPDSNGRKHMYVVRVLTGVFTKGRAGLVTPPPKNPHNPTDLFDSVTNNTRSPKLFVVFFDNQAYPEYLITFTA

[3] = molecular target: T1, PARP15; assay: ITC; also HDX-MS; type: binding
[4] = molecular target: T3, PARP15 (Homo sapiens, UniProt Q460N3); assay: ITC; also HDX-MS; type: binding
T3 construct: ART domain, Asn481-Ala678
T3 sequence (Q460N3 481-678): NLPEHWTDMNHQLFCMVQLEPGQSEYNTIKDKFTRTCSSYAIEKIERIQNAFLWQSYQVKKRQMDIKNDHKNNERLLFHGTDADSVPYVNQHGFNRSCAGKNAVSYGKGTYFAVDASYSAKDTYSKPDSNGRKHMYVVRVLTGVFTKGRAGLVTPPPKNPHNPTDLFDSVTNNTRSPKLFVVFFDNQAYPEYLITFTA

[5] = molecular target: T4, PARP10 (Homo sapiens, UniProt Q53GL7); assay: auto-MARylation assay with purified enzyme (MacroGreen overlay); type: biochemical
T4 construct: ART domain, Asn819-Val1007
T4 sequence (Q53GL7 819-1007): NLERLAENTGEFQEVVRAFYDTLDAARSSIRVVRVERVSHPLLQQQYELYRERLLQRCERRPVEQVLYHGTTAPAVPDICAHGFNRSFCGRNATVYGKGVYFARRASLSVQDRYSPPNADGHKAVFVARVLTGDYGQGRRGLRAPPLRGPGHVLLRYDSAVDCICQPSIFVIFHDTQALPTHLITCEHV

[6] = molecular target: T5, human PARP15 ART domain (Asn481-Ala678), wild type (human) (UniProt Q460N3)
T5 sequence: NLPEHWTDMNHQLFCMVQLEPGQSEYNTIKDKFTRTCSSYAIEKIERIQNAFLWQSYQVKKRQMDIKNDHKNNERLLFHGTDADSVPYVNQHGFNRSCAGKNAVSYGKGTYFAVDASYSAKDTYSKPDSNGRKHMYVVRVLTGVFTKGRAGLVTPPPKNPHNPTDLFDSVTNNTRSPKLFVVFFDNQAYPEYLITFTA

[7] = molecular target: the molecule itself; assay: AUC; sedimentation velocity, 0.5 µM PARP15 ART, 58,000 rpm, measured at 220 nm; Discrete Model Genetic Algorithm fit, 100 Monte Carlo iterations; no NAD+ treatment; dimer to monomers
[8] = molecular target: the molecule itself; assay: AUC; sedimentation velocity at 0.5 µM ART domain, 58,000 rpm for 5 h, measured at 220 nm, no NAD+; discrete model genetic algorithm (DMGA) analysis; dimer to monomers
[9] = molecular target: the molecule itself; assay: SEC-MALS; SEC-RALS/LALS (OMNISEC), Superdex 200 Increase 10/300 GL; 120 µl at 0.75 mg/ml PARP15 constructs, 0.35 mg/ml PARP14 ART, 0.65 mg/ml PARP10 ART; 50 mM HEPES pH 7.5, 300 mM NaCl, 1 mM TCEP
[10] = molecular target: the molecule itself; assay: HDX-MS; 2 mg/ml m2-ART in 50 mM TBS pH 7.4, labelling 0-9000 s at 20 °C
[11] = molecular target: the molecule itself; assay: AUC; sedimentation velocity at 9 µM protein, auto-MARylated and unmodified ART; 20 mM sodium phosphate pH 7, 150 mM NaCl; van Holde-Weischet analysis

Molecule: NC(=O)c1cccc(N)c1 [3-aminobenzamide]
- X-ray crystal structure; also nanoDSF thermal shift [1]: we crystallized the monomeric R576E mutant in complex with the nicotinamide analog 3-aminobenzamide (3AB)
- nanoDSF thermal shift at 1 mM ligand [2]: thermal stabilities and ligand-induced Tm-shifts indicated they were properly folded

Molecule: Nc1ncnc2c1ncn2[C@@H]1O[C@H](C(=O)N2CCN(CC(=O)Nc3cccc4c3CNC4=O)CC2)[C@@H](O)[C@H]1O [EB-47]
- Kd [3]: 47 µM
- Kd [4]: 24 µM

Molecule: NC(=O)c1ccc[n+]([C@@H]2O[C@H](COP(=O)([O-])OP(=O)(O)OC[C@H]3O[C@@H](n4cnc5c(N)ncnc54)[C@H](O)[C@@H]3O)[C@@H](O)[C@H]2O)c1 [NAD+]
- auto-MARylation assay with purified enzyme (MacroGreen overlay) [5]: PARP10 ART domain auto-modification increased in a roughly linear fashion over the entire concentration range

B1: PARP15 ART domain (Asn481-Ala678) H559Y, catalytically inactive (domain or fragment)
chain: NLPEHWTDMNHQLFCMVQLEPGQSEYNTIKDKFTRTCSSYAIEKIERIQNAFLWQSYQVKKRQMDIKNDHKNNERLLFYGTDADSVPYVNQHGFNRSCAGKNAVSYGKGTYFAVDASYSAKDTYSKPDSNGRKHMYVVRVLTGVFTKGRAGLVTPPPKNPHNPTDLFDSVTNNTRSPKLFVVFFDNQAYPEYLITFTA
- MARylation of plate-bound PARP15 macrodomain-2 by 250 nM wild-type ART with increasing H559Y (2-fold dilution series from 2 µM), MacroGreen overlay [6]: 500 nM

B2: human PARP15 ART domain (Asn481-Ala678), wild type (domain or fragment, UniProt Q460N3 481-678, looked up)
chain: NLPEHWTDMNHQLFCMVQLEPGQSEYNTIKDKFTRTCSSYAIEKIERIQNAFLWQSYQVKKRQMDIKNDHKNNERLLFHGTDADSVPYVNQHGFNRSCAGKNAVSYGKGTYFAVDASYSAKDTYSKPDSNGRKHMYVVRVLTGVFTKGRAGLVTPPPKNPHNPTDLFDSVTNNTRSPKLFVVFFDNQAYPEYLITFTA
notes: PARP15 (protein mono-ADP-ribosyltransferase PARP15), human, ART domain, residues Asn481-Ala678 of the canonical isoform (isoform 1); No tag cleavage is described; not copied; also called PARP15 ART WT; WT PARP15; source: E. coli BL21(DE3), purified (TALON IMAC, Superdex 75 SEC)
- Kd [7]: 0.313 µM

B3: human PARP15 ART domain (Asn481-Ala678), wild type (domain or fragment, UniProt Q460N3 481-678, looked up)
chain: NLPEHWTDMNHQLFCMVQLEPGQSEYNTIKDKFTRTCSSYAIEKIERIQNAFLWQSYQVKKRQMDIKNDHKNNERLLFHGTDADSVPYVNQHGFNRSCAGKNAVSYGKGTYFAVDASYSAKDTYSKPDSNGRKHMYVVRVLTGVFTKGRAGLVTPPPKNPHNPTDLFDSVTNNTRSPKLFVVFFDNQAYPEYLITFTA
notes: PARP15, human, ADP-ribosyltransferase (ART) domain, residues Asn481-Ala678; numbers count on the canonical isoform (isoform 1); cDNA in pNIC-Bsa4 (GenBank EF198106 is the vector); also called PARP15 ART WT; WT PARP15; source: E. coli BL21(DE3), purified (HiTrap TALON, Superdex 75 SEC)
- Kd [8]: 0.313 µM
- stoichiometry N [9]: 2

B4: PARP15 macrodomain-2 + ART domain construct (m2-ART; Gly287-Ala678) (domain or fragment, human, UniProt Q460N3 287-678, looked up)
chain: GTVSKPCFTAYEMKIGAITFQVATGDIATEQVDVIVNSTARTFNRKSGVSRAILEGAGQAVESECAVLAAQPHRDFIITPGGCLKCKIIIHVPGGKDVRKTVTSVLEECEQRKYTSVSLPAIGTGNAGKNPITVADNIIDAIVDFSSQHSTPSLKTVKVVIFQPELLNIFYDSMKKRDLSASLNFQSTFSMTTCNLPEHWTDMNHQLFCMVQLEPGQSEYNTIKDKFTRTCSSYAIEKIERIQNAFLWQSYQVKKRQMDIKNDHKNNERLLFHGTDADSVPYVNQHGFNRSCAGKNAVSYGKGTYFAVDASYSAKDTYSKPDSNGRKHMYVVRVLTGVFTKGRAGLVTPPPKNPHNPTDLFDSVTNNTRSPKLFVVFFDNQAYPEYLITFTA
notes: PARP15, human, macrodomain-2 and ART domain, residues Gly287-Ala678 of the canonical isoform (isoform 1); synthetic gene, codon optimised for E. coli, in pET151/TOPO; also called PARP15 m2-ART; PARP15 isoform-2 (m2-ART); source: E. coli BL21(DE3), purified (HiTrap TALON, Superdex 200 SEC, HiTrap SP XL cation exchange)
- binding result [10]: binds

B5: auto-MARylated PARP15 ART domain (Asn481-Ala678) (domain or fragment, human, UniProt Q460N3 481-678, looked up)
chain: NLPEHWTDMNHQLFCMVQLEPGQSEYNTIKDKFTRTCSSYAIEKIERIQNAFLWQSYQVKKRQMDIKNDHKNNERLLFHGTDADSVPYVNQHGFNRSCAGKNAVSYGKGTYFAVDASYSAKDTYSKPDSNGRKHMYVVRVLTGVFTKGRAGLVTPPPKNPHNPTDLFDSVTNNTRSPKLFVVFFDNQAYPEYLITFTA
modifications: mono-ADP-ribosylated by auto-modification with NAD+; sites not stated
notes: PARP15, human, ART domain, residues Asn481-Ala678 of the canonical isoform; same construct as m1 after auto-MARylation; source: E. coli BL21(DE3), purified; 40 µM incubated with 100 µM NAD+ for 1 h, NAD+ removed on a desalting column
- binding result [11]: binds
